Experimental data published in patent publication US20240392020A1 (JIANGSU HENGRUI PHARMACEUTICALS, published 2024).
Each block holds one binder with its values, some of them ahead of it.

Key:
[1] = molecular target: T1, Heavy chain of B0 (with a hole modification); assay: co-expression (B/U-2), mass spectrometry
T1 construct: single antibody chain, co-expressed; also called B-H1 of B/U-2

[2] = molecular target: T2, Heavy chain of U0 (with a knob modification); assay: co-expression (B/U-2), mass spectrometry
T2 construct: single antibody chain, co-expressed; also called B-H2

[3] = molecular target: T3, HJ-3-H1 (heavy chain of H0, knob, CH1 replaced with T.10-L1); assay: co-expression of three chains, mass spectrometry
T3 construct: single antibody chain, co-expressed

[4] = molecular target: T4, HJ-4-L2; assay: mass spectrometry of the product of four co-transfected chains of HJ-4; mispairing of heavy chain 2 with light chain 3
T4 construct: also called chain 3 of HJ-4

[5] = molecular target: T5, HJ-3-L1; assay: mass spectrometry of the product of four co-transfected chains of HJ-3; mispairing of heavy chain 2 with light chain 3
T5 construct: also called chain 3 of HJ-3

[6] = molecular target: T6, HJ-1-L1; assay: mass spectrometry of the product of four co-transfected chains of HJ-1; mispairing of heavy chain 2 with light chain 3
T6 construct: also called chain 3 of HJ-1

T2 sequence (heavy, as listed by the source): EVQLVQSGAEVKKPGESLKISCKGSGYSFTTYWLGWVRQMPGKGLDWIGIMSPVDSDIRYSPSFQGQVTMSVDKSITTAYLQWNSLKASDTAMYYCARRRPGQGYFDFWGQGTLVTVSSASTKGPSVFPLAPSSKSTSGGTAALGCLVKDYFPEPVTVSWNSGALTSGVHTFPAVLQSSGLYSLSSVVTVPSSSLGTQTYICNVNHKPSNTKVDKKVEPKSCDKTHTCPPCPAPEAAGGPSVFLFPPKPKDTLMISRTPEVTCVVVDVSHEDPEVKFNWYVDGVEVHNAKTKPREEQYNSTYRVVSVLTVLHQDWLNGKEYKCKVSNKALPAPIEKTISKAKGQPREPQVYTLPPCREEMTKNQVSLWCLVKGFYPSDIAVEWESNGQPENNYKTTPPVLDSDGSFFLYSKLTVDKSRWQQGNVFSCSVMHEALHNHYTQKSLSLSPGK
T1 sequence (heavy, as listed by the source): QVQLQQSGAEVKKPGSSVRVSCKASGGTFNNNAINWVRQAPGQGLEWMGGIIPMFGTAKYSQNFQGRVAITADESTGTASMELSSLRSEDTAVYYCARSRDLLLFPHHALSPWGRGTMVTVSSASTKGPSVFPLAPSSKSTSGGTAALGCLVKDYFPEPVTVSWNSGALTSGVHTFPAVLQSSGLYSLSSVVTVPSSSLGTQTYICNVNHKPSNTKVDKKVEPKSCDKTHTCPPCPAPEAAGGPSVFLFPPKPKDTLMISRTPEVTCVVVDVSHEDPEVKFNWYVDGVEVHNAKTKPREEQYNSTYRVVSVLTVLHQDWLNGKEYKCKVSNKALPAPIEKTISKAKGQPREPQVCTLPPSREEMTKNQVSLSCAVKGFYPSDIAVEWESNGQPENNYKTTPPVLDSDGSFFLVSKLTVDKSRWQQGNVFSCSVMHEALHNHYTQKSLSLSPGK

binding result [1]: no binding
binding result [2]: no binding
B1: Chain formed by replacement of CL of light chain of B0 with O.20 (other)
light: SSELTQDPAVSVALGQTVRVTCQGDSLRSYYASWYQQKPGQAPVLVIYGKNNRPSGIPDRFSGSSSGNTASLTITGAQAEDEADYYCSSRDSSGNHWVFGGGTELTVLSGAPRFLTRPLAFVVSVGKDATLSSQIVGNPTPQVSWEKDKQPVTAGARFRLAQDGDLYRLKILDLQLSDSGQYVSRARNAIGEAFACLGLQVDAEA
notes: single antibody chain, co-expressed; also called B-L1 of B/U-1 and B/U-2

binding result [3]: no binding
B2: Light chain of J1 (other)
light: SIVMTQTPLSLSVTPGQPASISCKASQSVSSDVTWYLQKPGQSPQLLIYYVSEHYTGVPDRFSGSGYGTDFTLKISRVEAEDVGVYYCQQHHRFPLTFGQGTKLEIKRTVAAPSVFIFPPSDEQLKSGTASVVCLLNNFYPREAKVQWKVDNALQSGNSQESVTEQDSKDSTYSLSSTLTLSKADYEKHKVYACEVTHQGLSSPVTKSFNRGEC
notes: single antibody chain, co-expressed; also called HJ-1-L2; HJ-3-L2

binding result [4]: no binding
B3: HJ-4-H1 (other)
heavy: EVQLVESGGGLVQPGGSLRLSCAASGFTFSHYYMAWVRQAPGKGLEWVTSISYEGDITYYGDSVKGRFTISRDNSKNTLYLQMNSLRAEDTATYYCASQTLRESFDYWGQGTLVTVSSASTKGPSVFPLAPSSKSTSGGTAALGCLVKDYFPEPVTVSWNSGALTSGVHTFPAVLQSSGLYSLSSVVTVPSSSLGTQTYICNVNHKPSNTKVDKKVEPKSCDKTHTCPPCPAPEAAGGPSVFLFPPKPKDTLMISRTPEVTCVVVDVSHEDPEVKFNWYVDGVEVHNAKTKPREEQYNSTYRVVSVLTVLHQDWLNGKEYKCKVSNKALPAPIEKTISKAKGQPREPQVCTLPPSREEMTKNQVSLSCAVKGFYPSDIAVEWESNGQPENNYKTTPPVLDSDGSFFLVSKLTVDKSRWQQGNVFSCSVMHEALHNHYTQKSLSLSPGKDYKDDDDK
notes: also called chain 2 of HJ-4

binding result [5]: no binding
B4: HJ-3-H2 (other)
heavy: EVQLVQSGAEVKKPGSSVKVSCKASGYTFSNYLIEWVRQAPGQGLEWIGVIDPGVGDTNYNENFKGRATLTADKSTSTAYIELSSLRSEDTAVYYCAREDNTGTAFDYWGQGTTVTVSSASTKGPSVFPLAPSSKSTSGGTAALGCLVKDYFPEPVTVSWNSGALTSGVHTFPAVLQSSGLYSLSSVVTVPSSSLGTQTYICNVNHKPSNTKVDKKVEPKSCDKTHTCPPCPAPEAAGGPSVFLFPPKPKDTLMISRTPEVTCVVVDVSHEDPEVKFNWYVDGVEVHNAKTKPREEQYNSTYRVVSVLTVLHQDWLNGKEYKCKVSNKALPAPIEKTISKAKGQPREPQVCTLPPSREEMTKNQVSLSCAVKGFYPSDIAVEWESNGQPENNYKTTPPVLDSDGSFFLVSKLTVDKSRWQQGNVFSCSVMHEALHNHYTQKSLSLSPGKDYKDDDDK
notes: also called chain 2 of HJ-3

binding result [6]: no binding
B5: HJ-1-H2 (other)
heavy: B4 heavy
notes: also called chain 2 of HJ-1
